# B1: murine IL-2 receptor on murine CD25+ CTLL-2 cells (receptor)
# chain 1: ELCLYDPPEVPNATFKALSYKNGTILNCECKRGFRRLKELVYMRCLGNSWSSNCQCTSNSHDKSRKQVTAQLEHQKEQQTTTDMQKPTQSMHQENLTGHCREPPPWKHEDSKRIYHFVEGQSVHYECIPGYKALQRGPAISICKMKCGKTGWTQPQLTCVDEREHHRFLASEESQGSRNSSPESETSCPITTTDFPQPTETTAMTETFVLTMEYKVAVASCLFLLISILLLSGLTWQHRWRKSRRTI
# chain 2: AVKNCSHLECFYNSRANVSCMWSHEEALNVTTCHVHAKSNLRHWNKTCELTLVRQASWACNLILGSFPESQSLTSVDLLDINVVCWEEKGWRRVKTCDFHPFDNLRLVAPHSLQVLHIDTQRCNISWKVSQVSHYIEPYLEFEARRRLLGHSWEDASVLSLKQRQQWLFLEMLIPSTSYEVQVRVKAQRNNTGTWSPWSQPLTFRTRPADPMKEILPMSWLRYLLLVLGCFSGFFSCVYILVKCRYLGPWLKTVLKCHIPDPSEFFSQLSSQHGGDLQKWLSSPVPLSFFSPSGPAPEISPLEVLDGDSKAVQLLLLQKDSAPLPSPSGHSQASCFTNQGYFFFHLPNALEIESCQVYFTYDPCVEEEVEEDGSRLPEGSPHPPLLPLAGEQDDYCAFPPRDDLLLFSPSLSTPNTAYGGSRAPEERSPLSLHEGLPSLASRDLMGLQRPLERMPEGDGEGLSANSSGEQASVPEGNLHGQDQDRGQGPILTLNTDAYLSLQELQAQDSVHLI
# chain 3: WSSKVLMSSANEDIKADLILTSTAPEHLSAPTLPLPEVQCFVFNIEYMNCTWNSSSEPQATNLTLHYRYKVSDNNTFQECSHYLFSKEITSGCQIQKEDIQLYQTFVVQLQDPQKPQRRAVQKLNLQNLVIPRAPENLTLSNLSESQLELRWKSRHIKERCLQYLVQYRSNRDRSWTELIVNHEPRFSLPSVDELKRYTFRVRSRYNPICGSSQQWSKWSQPVHWGSHTVEENPSLFALEAVLIPVGTMGLIITLIFVYCWLERMPPIPPIKNLEDLVTEYQGNFSAWSGVSKGLTESLQPDYSERFCHVSEIPPKGGALGEGPGGSPCSLHSPYWPPPCYSLKPEA
# notes: whole, on cells; also called murine CD25+ IL-2 receptor
# Target: monovalent murine IL-2 fusion toxin (DT390-mIL-2-6xHis)
# Assay: flow cytometry on CTLL-2 cells
binder,measurement,value
B1,binding result,binds

# Source: patent US20160030526A1 (GENERAL HOSPITAL, published 2016)
